Columns and labels:
[1] = target: angiotensin II type 1 receptor A244S (human) (UniProt P30556)
[2] = target: angiotensin II type 1 receptor I103T-A244S (human) (UniProt P30556)
[3] = target: angiotensin II type 1 receptor, wild type (human) (UniProt P30556)
[4] = target: angiotensin II type 1 receptor I103T (human) (UniProt P30556)

Sequence of βarrestin2-RlucII (P32121 whole entry): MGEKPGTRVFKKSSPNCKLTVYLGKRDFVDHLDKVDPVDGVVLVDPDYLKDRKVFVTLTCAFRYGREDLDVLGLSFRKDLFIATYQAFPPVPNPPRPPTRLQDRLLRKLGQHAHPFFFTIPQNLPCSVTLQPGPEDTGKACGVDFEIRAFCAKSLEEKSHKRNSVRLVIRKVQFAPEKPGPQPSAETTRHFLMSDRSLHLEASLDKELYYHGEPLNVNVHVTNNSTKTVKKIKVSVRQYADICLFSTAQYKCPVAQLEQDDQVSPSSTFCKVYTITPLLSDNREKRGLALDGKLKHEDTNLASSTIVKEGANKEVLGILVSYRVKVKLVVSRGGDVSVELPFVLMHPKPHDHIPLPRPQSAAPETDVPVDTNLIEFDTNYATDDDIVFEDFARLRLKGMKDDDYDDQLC

Substance: βarrestin2-RlucII (from UniProt P32121 1-409) (natural protein)
- AngII-stimulated β-arrestin 2 recruitment to the membrane (BRET2 between βarrestin2-RlucII and rGFP-CaaX), Emax (% WT) [1]: 106 % WT
- AngII-stimulated β-arrestin 2 recruitment to the membrane (BRET2 between βarrestin2-RlucII and rGFP-CaaX), pEC50 of AngII [1]: 8.68
- AngII-stimulated β-arrestin 2 recruitment to the membrane (BRET2 between βarrestin2-RlucII and rGFP-CaaX), Emax (% WT) [2]: 50 % WT
- AngII-stimulated β-arrestin 2 recruitment to the membrane (BRET2 between βarrestin2-RlucII and rGFP-CaaX), pEC50 of AngII [2]: 8.5
- AngII-stimulated β-arrestin 2 recruitment to the membrane (BRET2 between βarrestin2-RlucII and rGFP-CaaX), pEC50 of AngII [3]: 8.49
- AngII-stimulated β-arrestin 2 recruitment to the membrane (BRET2 between βarrestin2-RlucII and rGFP-CaaX), Emax (% WT) [4]: 97 % WT
- AngII-stimulated β-arrestin 2 recruitment to the membrane (BRET2 between βarrestin2-RlucII and rGFP-CaaX), pEC50 of AngII [4]: 8.54
